PMC9884143 (2023)

B1: CoV2-YD-6 (antibody, V domains shown)
VH: QVQLVESGGGSVQVGGSLRLSCAASGMTFSSATMAWYRQAPGKQREWVAGIGSGGRTSYASSMKGRFTISRDNAKNTVYLQMNSLKPEDTAVYYCYTALLSGGDYWGQGTQVTVS
B2: CoV2-YD-2 (antibody, V domains shown)
VH: QVQLVESGGGLVQPGGSLRLSCSISGFSFGYSAIGWFRQAPGLEREWVSTISSNGDDTVYADSVKGRFTISRDNAKNTVYLQMDSLKPEDTAVYYCARSFRWSRLPRDYDSWGQGTQVTVS
B3: CoV2-YD-8 (antibody, V domains shown)
VH: QVQLVESGGGLVQPGGSLSLSCAASGSMNSMNPMGWYRQAPGKEREVVARISSGGSTTYTDSVKGRFTISRDSAKNTVYLQMNSLKPDDTAVYYCYIIDDYGVQYWGKGTQVTVS
B4: CoV2-YD-3 (antibody, V domains shown)
VH: QVQLVESGGGLVQAGGSLRLSCVASTTWFSNFGMGWYRQAPGKQRELVAGITYDGTTKYVDSVKGRSTIARDNAKNTVSLQMNSVKPGDTAIYYCNTYPSQLWNWGQGTQVTVS
B5: CoV2-YD-33 (antibody, V domains shown)
VH: DVQLVESGGGLVQAGGSLRLSCVASGSTDSNYVMGWHRQTSGKQSEWVASIESGGEKKIVDSVKGRFTISRDNAKNTVYLQMNSLKPEDTAVYYCFYERLAWDTSTYWGQGTQVTVS
B6: CoV2-YD-34 (antibody, V domains shown)
VH: DVQLVESGGGLVQAGGSLRLSCVASGSTDSNYVMGWYRQTSGKQREWVASINSGGETRSADSEKGRFTISGDNAKNTVYLQMNSLKPEDTGVYYCFYERLAWDTSTYWGQGTQVTVS
B7: CoV2-YD-9 (antibody, V domains shown)
VH: QVQLVESGGGLVQAGGSVRLSCAASGITFSNYASQWFRQTPGKAREFVAAISGGGTTSYAASVKGRFTLSRDNAKNTVYLQMNDLKFEDTAVYYCHTADLYSDYWGQGTQVTVS
B8: CoV2-YD-7 (antibody, V domains shown)
VH: QVQLVESGGGLVQPGGSLRLSCTASVHPFSIYDMGWYRQAPGKQRVLVASISSDGTTDYADSVKGRFTISRDNAKNTVYLQMDSLKPEDTAVYYCNLAYVTWGQGTQVTVS

The binders below were run against SARS-CoV-2 Spike S1 (Wuhan; S1 or RBD) (Severe acute respiratory syndrome …, UniProt P0DTC2) (assay: SPR).

B1 and B2 are within 1.5-fold of each other in Kd: 2.91 nM for the first, 3.68 nM for the second.

Going from B3 to B4, the Kd falls from 0.126 nM to 0.0409 nM (3.1-fold).

First: B5
Second: B6
The Kd of the first is 6.5-fold higher: 3.54 nM for the first, 0.541 nM for the second.

Compared with B7, B8 is 200-fold higher in Kd: 0.0164 nM for the first, 3.24 nM for the second. The first binds more tightly here.
